In patent publication US20250066499A1 (SUNSHINE GUOJIAN PHARMACEUTICAL SHANGHAI, published 2025):

Assays:
Experiment in all cases: ELISA, biotinylated antigen on streptavidin plate
CD73-ND-his = target: T1, CD73-ND-his (human, UniProt P21589 27-317)
T1 construct: Biotinylated and captured on streptavidin in the ELISA
T1 sequence: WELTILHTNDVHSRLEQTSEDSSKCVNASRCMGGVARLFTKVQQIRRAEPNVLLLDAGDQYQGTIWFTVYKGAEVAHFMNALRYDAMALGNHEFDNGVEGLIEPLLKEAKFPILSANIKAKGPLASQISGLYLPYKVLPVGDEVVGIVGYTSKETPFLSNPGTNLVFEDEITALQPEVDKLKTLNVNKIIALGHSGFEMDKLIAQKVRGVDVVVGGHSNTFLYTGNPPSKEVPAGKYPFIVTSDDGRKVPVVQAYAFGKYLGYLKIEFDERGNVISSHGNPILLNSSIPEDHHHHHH
Description: (§1) The ELISA plates were coated with SA protein diluted to 1.5 μg/mL in coating buffer (50 mM carbonate coating buffer, pH 9.6) and incubated overnight at 4° C. The supernatant was discarded, and the plates were washed three times with PBST. Then, 5% skimmed milk powder prepared with PBS was added for blocking and the plates were incubated for 2 h at 37° C. After washing the plates once with PBST, CD73-biotin protein (prepared by biotinylating CD73-His protein according to the EZ-Link NHS-Biotin Reagent instructions) was diluted to 0.5 μg/mL and added at 100 μL/well for incubation at room temperature for 1 h. The plates were washed three times with PBST, and the prepared murine-derived monoclonal antibodies against human CD73 were serially diluted with 1% BSA buffer prepared with PBST and added to the ELISA plates at 100 μl/well. The plates were incubated at 37° C. for 1 h. After washing the plates three times with PBST, HRP-labeled goat anti-mouse IgG secondary antibody was added and the plates were incubated for 30 min at 37° C. After washing the plates three times with PBST, the residual droplets were patted dry on absorbent paper as much as possible. Then, 100 μl of TMB color developing solution was added to each well, and the plates were incubated in the dark at room temperature for 5 min for color development. Subsequently, 50 μl of 2M H₂SO₄ stop solution was added to each well to terminate the substrate reaction. The OD values were read at 450 nm using a multimode microplate reader to analyze the binding ability of the tested antibodies to the target antigen human CD73-His.
(§2) Referring to the experimental method in Example 3, the affinity of 48A11-HuV33 for various mutant proteins of CD73-ND was determined. The SA protein was diluted to 1 μg/mL for coating the ELISA plates, and the biotinylated CD73 protein (CD73-biotin) was used at a concentration of 0.1 μg/mL.

CD73-ND-E143A = target: T2, CD73-ND-E143A (human, UniProt P21589 27-317)
T2 construct: Alanine mutant of CD73-ND
T2 sequence: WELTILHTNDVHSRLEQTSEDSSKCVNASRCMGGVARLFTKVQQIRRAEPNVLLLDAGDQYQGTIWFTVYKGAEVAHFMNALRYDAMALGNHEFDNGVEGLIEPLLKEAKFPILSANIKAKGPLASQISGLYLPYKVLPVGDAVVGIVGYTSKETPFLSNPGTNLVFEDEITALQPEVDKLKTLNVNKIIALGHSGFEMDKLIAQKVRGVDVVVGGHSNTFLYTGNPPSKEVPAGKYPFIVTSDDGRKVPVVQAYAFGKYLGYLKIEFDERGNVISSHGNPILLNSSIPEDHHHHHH
Description: as §1, §2

CD73-ND-V144A = target: T3, CD73-ND-V144A (human, UniProt P21589 27-317)
T3 construct: Alanine mutant of CD73-ND
T3 sequence: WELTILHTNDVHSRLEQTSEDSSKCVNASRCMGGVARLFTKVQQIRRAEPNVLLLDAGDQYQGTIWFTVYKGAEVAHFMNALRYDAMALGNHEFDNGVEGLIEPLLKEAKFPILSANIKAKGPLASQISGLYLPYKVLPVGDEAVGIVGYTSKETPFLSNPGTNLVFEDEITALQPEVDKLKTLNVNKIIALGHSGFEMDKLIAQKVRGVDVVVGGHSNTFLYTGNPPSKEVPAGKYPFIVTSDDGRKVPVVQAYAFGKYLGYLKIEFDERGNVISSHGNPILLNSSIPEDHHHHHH
Description: as §1, §2

CD73-ND-L181A = target: T4, CD73-ND-L181A (human, UniProt P21589 27-317)
T4 construct: Alanine mutant of CD73-ND
T4 sequence: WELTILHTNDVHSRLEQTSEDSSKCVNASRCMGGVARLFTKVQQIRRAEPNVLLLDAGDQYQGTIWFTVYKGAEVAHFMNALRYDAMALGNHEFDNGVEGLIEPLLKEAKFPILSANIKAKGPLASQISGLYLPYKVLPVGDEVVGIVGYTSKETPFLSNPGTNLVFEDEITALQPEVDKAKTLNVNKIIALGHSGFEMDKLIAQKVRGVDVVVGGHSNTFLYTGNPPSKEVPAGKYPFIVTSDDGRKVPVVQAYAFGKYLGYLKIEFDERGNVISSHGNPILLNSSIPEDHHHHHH
Description: as §1, §2

CD73-ND-K182A = target: T5, CD73-ND-K182A (human, UniProt P21589 27-317)
T5 construct: Alanine mutant of CD73-ND
T5 sequence: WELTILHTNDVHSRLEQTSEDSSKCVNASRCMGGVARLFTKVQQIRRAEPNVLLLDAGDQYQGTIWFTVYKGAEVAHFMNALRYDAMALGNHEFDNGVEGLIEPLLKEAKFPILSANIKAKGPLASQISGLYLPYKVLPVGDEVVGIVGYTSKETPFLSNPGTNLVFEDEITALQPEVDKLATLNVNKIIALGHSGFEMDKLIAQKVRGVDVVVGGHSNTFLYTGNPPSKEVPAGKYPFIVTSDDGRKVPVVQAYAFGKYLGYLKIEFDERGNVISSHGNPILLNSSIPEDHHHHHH
Description: as §1, §2

CD73-ND-N185A = target: T6, CD73-ND-N185A (human, UniProt P21589 27-317)
T6 construct: Alanine mutant of CD73-ND
T6 sequence: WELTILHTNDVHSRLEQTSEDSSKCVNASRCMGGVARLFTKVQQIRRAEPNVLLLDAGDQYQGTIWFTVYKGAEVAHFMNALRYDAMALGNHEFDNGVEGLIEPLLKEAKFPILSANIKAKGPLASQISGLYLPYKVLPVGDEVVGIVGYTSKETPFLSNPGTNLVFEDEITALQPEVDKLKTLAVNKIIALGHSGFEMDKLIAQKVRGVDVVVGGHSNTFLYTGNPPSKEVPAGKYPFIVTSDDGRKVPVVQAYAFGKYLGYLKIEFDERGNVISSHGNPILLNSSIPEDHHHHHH
Description: as §1, §2

B1: 48A11-HuV33 (antibody, human IgG4, V domains shown)
VH: QVQLVQSGAEVKKPGASVKVSCKASGYTFTSYWMHWVRQAPGQGLEWIGEINPSIGRTNYNEKFKSRVTLTRDTSTSTAYMELSSLRSEDTAVYYCARRVYGTMDYWGQGTLVTVSS
VL: DIQMTQSPSSLSASVGDRVTITCKASQDINSYLSWFQQKPGKSPKLLIYRANIWVDGVPSRFSGSGSGQDYTFTISSLQPEDIATYYCLQYDELYTFGQGTKVEIK
notes: Humanized
EC50 (CD73-ND-his): 0.117 nM | EC50 (CD73-ND-E143A): 0.167 nM | EC50 (CD73-ND-V144A): 0.29 nM | EC50 (CD73-ND-L181A): 0.226 nM | EC50 (CD73-ND-K182A): 0.121 nM | EC50 (CD73-ND-N185A): 0.188 nM
